Measurements from ChEMBL document CHEMBL1122571, “Design and synthesis of tetrahedral intermediate analogues as potential dihydroorotase inhibitors” (J Med Chem, 1984).

Tested on: O=C1CC(C(=O)O)NC(=O)N1
Assay: Compound was evaluated for the inhibition of dihydroorotase enzyme from mouse Ehrlich ascites at the concentration of 10 uM and at pH 7.37

## Multifunctional protein CAD (Mus musculus), B2RQC6
  Km: 4 µM
